No end group written: not given here.

For assay [1], the target named is T1, AtUBC36 (Arabidopsis thaliana, UniProt Q9FZ48).
T1 construct: 6xHis (N); made in house; host or cells: E. coli Rosetta 2 (DE3) pLacI
T1 sequence (Q9FZ48 1-153): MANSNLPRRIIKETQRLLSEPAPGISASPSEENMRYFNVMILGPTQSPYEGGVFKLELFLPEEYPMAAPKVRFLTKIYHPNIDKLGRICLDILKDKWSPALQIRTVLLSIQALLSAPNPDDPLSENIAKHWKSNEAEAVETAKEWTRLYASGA
Nature of the assay: E2~Ub thioester formation assay, AtUBC36. In kind it is biochemical. Conditions: group XV E2, AtMUB3 30 μM. As to the method:
(§1) E2˜Ub thioester formation assays were performed at 25° C. using 0.25 μM E1, 3 μM E2, 12 μM Ub, and 50 mM HEPES, pH 8.0, initiated with addition of 1 mM Mg-ATP. When included, 30 μM AtMUB3 was pre-incubated for 15 min at 25° C. Reactions were terminated by the addition of non-reducing or reducing Laemmli buffer. Protein samples were visualized and analyzed as described, above, and quantified using Fuji Film Multi-Gauge software. Relative inhibition efficiency (RIE) was determined by comparing the inhibition efficiency of AtMUB3 mutants to wild type as follows; RIE=[1−(E2˜Ub with AtMUB3 mutant/E2)]/[1−(E2˜Ub with WT AtMUB3/E2)].
(§2) To assess whether MUB binding regulates E2 function, E2˜Ub thioester formation assays were performed on AtUBC8. […] AtUBC8-Ub peptide linkages, which could complicate the analysis, were observed by 10 minutes, so three minute reactions were used in subsequent assays. Ser22 on the so-called backside binding site (BBS) of AtUBC8 is distant from the active site Cys85, and was previously determined to interfere with MUB-induced E2 localization to the PM (Dowil et al., 2011). E2Ub formation on AtUBC8 Ser22Arg was unaffected by AtMUB3, supporting the requirement of a direct interaction for inhibition (FIG. 1C). Since MUBs interact specifically with Arabidopsis group VI E2s, two additional subfamily members, AtUBC10 and AtUBC28 were tested. […]

The target of assay [2] is T2, AtUBC8 (Arabidopsis thaliana, UniProt P35131).
T2 construct: 6xHis; made in house; host or cells: E. coli Rosetta 2 (DE3) pLacI
As to the kind of experiment: Isothermal titration calorimetry. Conditions: ITC, 8 μM AtUBC8, 110 μM AtMUB3 titrant, 25 mM HEPES pH 7.5, 200 mM NaCl. It counts as binding. The procedure:
FIG. 13. AtMUB binds AtUBC8 with submicromolar dissociation constant Kd as measured by isothermal titration calorimetry. Isothermal titration calorimetry (ITC) was performed on 8 μM AtUBC8 with 110 μM AtMUB3 as the titrant using a MicroCal iTC200 (GE). Proteins were purified as described for crystallization and dialyzed extensively against a buffer containing 25 mM HEPES, pH 7.5, 200 mM NaCl, 1 mM TCEP. Data was processed with MicroCal Origin 7 software, and normalized against the dialysis buffer's heat of dilution. This plot is representative of 3 independent experiments, which yielded similar results but were performed at different concentrations of NaCl.
(Isothermal titration calorimetry measures the heat released or taken up as one component is titrated into another.)

The target in assay [3] is T3, AtUBC8~Ub (Arabidopsis thaliana, UniProt P35131).
T3 construct: 6xHis; made in house; host or cells: E. coli Rosetta 2 (DE3) pLacI
As to the kind of experiment: E2~Ub thioester discharge assay. It counts as biochemical. As to conditions: 30 μM MUB, 100 mM lysine. As to the method:
FIG. 11. […] AtUBC8˜Ub discharging assay is exposed to AtMUB3. The quantification is presented in line graph, top panel (+/−SEM and n=3 for all data points), while the immunoblot (IB) of triple parallel experiments is shown in bottom panel.
AtUBC8 (3 μM) was charged by incubating with 0.25 μM E1, 50 mM HEPES, pH 8.0, 1 mM Mg-ATP and 12 μM K0Ub for 3 min. The E1 was inactivated for 90 seconds with 50×E1 stop buffer (BostonBiochem). Lysine (100 mM) was added to the reaction with or without 30 μM MUB to initiate Ub leaving from the E2 active site.

Assay [4] concerns the target T2, AtUBC8. Nature of the assay: GST pull-down assay with GST-AtUBC8. It counts as binding. As to conditions: immunoblot. As to the method: (§3) GST-tagged AtUBC8 was induced as described above, and the soluble extract fraction was immobilized on GSH resin (Thermo Scientific) for 20 min, followed by three washes with sonication buffer. Equi-molar His-tagged AtMUB3, AtMUB3 mutants and Ub were incubated separately with AtUBC8 loaded GSH resin for 15 min, washed three times using sonication buffer, and boiled in Laemmli buffer. MUB recovery was determined by immunoblotting and chemiluminescent detection using Fujifilm LAS4000 imaging. For FLAG pull-down assay, His-tagged AtUBC8C85S—O-Ub was generated (Sakata et al., 2010). Flag-tagged AtMUB3 was immobilized on FLAG resin (Thermo Scientific) for 20 min, followed by three washes with sonication buffer. AtUBC8C85S—O-Ub protein or Ub were incubated separately with AtMUB3 loaded FLAG resin for 15 min, washed three times using sonication buffer, and boiled in Laemmli buffer.
In general terms: Immunoblotting shows a protein as a band on a membrane.

The target in assay [5] is T4, AtUBC10 (Arabidopsis thaliana, UniProt P35133).
T4 construct: 6xHis (N); made in house; host or cells: E. coli Rosetta 2 (DE3) pLacI
Nature of the assay: E2~Ub thioester formation assay, AtUBC10. In kind it is biochemical. Conditions: group VI E2, AtMUB3 30 μM. The procedure:
as §1, §2

In assay [6] the target is T5, AtUBC28 (Arabidopsis thaliana, UniProt Q94F47).
T5 construct: 6xHis (N); made in house; host or cells: E. coli Rosetta 2 (DE3) pLacI
Nature of the assay: E2~Ub thioester formation assay, AtUBC28. It counts as biochemical. Conditions: group VI E2, AtMUB3 30 μM. The procedure:
as §1, §2

In assay [7] the target is T6, Ube2D3 (Homo sapiens, UniProt P61077).
T6 construct: 6xHis (C); made in house; host or cells: E. coli Rosetta 2 (DE3) pLacI
As to the kind of experiment: E2~Ub thioester formation assay, Ube2D3. As to conditions: immunoblot. It counts as biochemical. As to the method: as §1
To test whether the differences between plant and animal LBLs influence their activity, the inventors compared them in reciprocal inhibition experiments. […] Taken together, MUB inhibition of E2Ub formation is conserved and broadly relevant to organisms that use the ubiquitylation system.

The target in assay [8] is T7, AtUBC8C85S with Ub linked to the active site through an oxyester bond (Arabidopsis thaliana, UniProt P35131, C85S).
T7 construct: His; made in house; host or cells: E. coli Rosetta 2 (DE3) pLacI
As to the kind of experiment: FLAG pull-down assay with FLAG-AtMUB3. In kind it is binding. Conditions: immunoblot. As to the method: as §3

For assay [9], the target named is T2, AtUBC8. Nature of the assay: E2~Ub thioester formation assay (immunoblot), AtUBC8. As to conditions: for inhibition of AtUBC8~Ub thioester formation: MUB protein 30 μM pre-incubated 15 min, 3 μM E2, immunoblot. In kind it is biochemical. As to the method:
E2 Thioester Formation Assays.
as §1
Lap-Bar Peptide Inhibition Assay.
Lap-Bar custom peptide ([…] SEQ ID NO: 1, Sigma-Aldrich and Peptide 2.0 Inc.), three scrambled peptides ([…] SEQ ID NO: 4, […] SEQ ID NO: 49, […] SEQ ID NO: 50, Peptide 2.0 Inc.) and amino acid controls were dissolved in 50 mM Tris-HCl, pH 7.5, 300 mM NaCl, and 10% Glycerol.

Assay [10] deals with T8, AtUBC8 Ser22Arg (Arabidopsis thaliana, UniProt P35131, S22R).
T8 construct: 6xHis (C); made in house; host or cells: E. coli Rosetta 2 (DE3) pLacI
As to the kind of experiment: E2~Ub thioester formation assay, AtUBC8 Ser22Arg. It counts as biochemical. As to conditions: AtMUB3 30 μM, three minute reaction. The procedure: as §1, §2

Assay [11] deals with T9, AtUBC4 (Arabidopsis thaliana, UniProt P42748).
T9 construct: 6xHis (N); made in house; host or cells: E. coli Rosetta 2 (DE3) pLacI
T9 sequence (P42748 1-187): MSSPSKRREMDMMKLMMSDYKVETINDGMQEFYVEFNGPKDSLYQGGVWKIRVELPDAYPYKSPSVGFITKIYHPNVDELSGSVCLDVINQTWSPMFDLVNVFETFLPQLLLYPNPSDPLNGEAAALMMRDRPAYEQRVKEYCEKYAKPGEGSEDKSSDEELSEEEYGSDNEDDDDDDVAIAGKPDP
Nature of the assay: E2~Ub thioester formation assay, AtUBC4. In kind it is biochemical. As to conditions: group IV E2, AtMUB3 30 μM. The procedure: as §1, §2

Assay [12] deals with T6, Ube2D3. Nature of the assay: HTRF-FRET E2 activation assay. In kind it is biochemical. The procedure:
FIG. 12. Ube2D3 Activation. Using HTRF-FRET, Ube2D3 activation was monitored with indicated concentrations of HsMUB to establish an inhibition curve. The initial velocity was linear over the first 10 minutes and is represented as percent E2 activated, with 100% velocity taken in the absence of MUB and 0% in the absence of ATP. Plot represents three independent assays+s.e.m., fit to the one-site binding equation. An additional three assays fit to the Hill equation with coefficient n produced nearly identical results with n1.
HTRF-FRET E2 activation assays were conducted using reagents adapted from the E1/E2 Lite kit (LifeSensors, Malvern, Pa.). […] Assays were read kinetically using a BioTek Synergy 4 plate reader equipped with Excitation 340/30 nm, Emission1 495/10 nm, Emission2 520/25 nm bandpass filters, a 400 nm dichroic mirror, and a Xenon flash lamp set to read Terbium and Fluorescein emission with a 100 μs time delay and 200 μs data collection time. The corrected FRET ratio was calculated as described in the TR-FRET manual (Molecular Devices): [(Em520/Em490)−(P*Em490))/Em490]*10000, where P=Em520/Em490 with terbium only, a proportionality factor to correct for terbium donor contribution to acceptor emission. The linear slope of the first 10 minutes of the reaction was determined as the initial velocity. […]

T2 sequence (P35131 whole entry): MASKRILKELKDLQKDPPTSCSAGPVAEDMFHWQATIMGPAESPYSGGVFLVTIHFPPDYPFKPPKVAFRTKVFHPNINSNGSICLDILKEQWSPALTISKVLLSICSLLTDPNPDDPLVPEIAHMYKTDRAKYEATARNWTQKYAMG
T6 sequence (P61077 whole entry): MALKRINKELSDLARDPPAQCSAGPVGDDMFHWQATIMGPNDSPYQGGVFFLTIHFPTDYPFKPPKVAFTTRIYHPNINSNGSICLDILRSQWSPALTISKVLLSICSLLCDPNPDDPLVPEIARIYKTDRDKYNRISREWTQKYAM
T3 sequence (P35131 whole entry): as the sequence (P35131 whole entry) above
T7 sequence (P35131 whole entry C85S): as the sequence (P35131 whole entry) above, with C85S counted along it
T4 sequence (P35133 whole entry): as the sequence (P35131 whole entry) above, with A41S, S46A, R131K, A132N, A136S, N140S counted along it
T5 sequence (Q94F47 whole entry): as the sequence (P35131 whole entry) above, with A41S, E42D, I78V, A136S, N140S counted along it
T8 sequence (P35131 whole entry S22R): as the sequence (P35131 whole entry) above, with S22R counted along it

Take “AtMUB3: Arabidopsis thaliana Membrane-anchored Ubiquitin-fold protein 3, recombinant, His-tagged (VGQCKTPFGDIAGGVIVMHVV; also: His tag; listed as Arabidopsis thaliana)”: the “inhibition of AtUBC36 activation” value in [1] was “unaffected”. Also, the “dissociation constant Kd” value in assay [2] is given as “submicromolar”. Also, the “Ub discharge from AtUBC8~Ub” value in assay [3] is reported as “increase Ub discharging”; in [3] (listed as MUB), “slightly faster”. Moreover, the “binding to GST-AtUBC8 in pull-down” value in [4] is reported as “efficient bait”. For the same molecule, in assay [5], the “inhibition of AtUBC10 activation” value is reported as “strongly inhibited”. Besides, in assay [6], the “inhibition of AtUBC28 activation” value is listed as “strongly inhibited”. In [7], the “inhibition of Ube2D3~Ub formation” value was “does not inhibit”. The “pull-down of AtUBC8C85S-O-Ub” value in [8] is “can pull-down”. Besides, the “inhibition of AtUBC8~Ub thioester formation” value in assay [9] is recorded as “strongly reduced”. Further, the “inhibition of E2~Ub formation on AtUBC8 Ser22Arg” value in assay [10] is reported as “unaffected”. For the same molecule, the “inhibition of AtUBC4 activation” value in assay [11] is reported as “unaffected”.
Consider “LKLPFGKT [minimal human LBL, human MUB Lap Bar Loop eight-residue peptide]”, for which, in assay [9] (peptide 5 mM, 3 μM AtUBC8), the “inhibition of AtUBC8~Ub formation by peptides” value is given as “potent inhibitory activity”.

B1: AtMUB3 F77A (protein, UniProt Q9SW27 1-115, looked up, variant F77A)
Membrane-anchored …: MPEEESIDIKFRLYDGSDIGPFRYSAASTVDFLKQRVVSDWPKGKTVVPKGINEVKLISSGKILENNKTVGQCKTPAGDIAGGVIVMHVVVQPSLAKSKTEKKVDKAPKAVICTC
Consider B1, for which the “inhibition of AtUBC8~Ub thioester formation” value in assay [9] is reported as “strong loss of inhibition”.

B2: HsMUB: human version of MUB, aka Ubl3, SEQ ID NO: 2 (protein, listed as Homo sapiens)
chain: MSSNVPADMINLRLILVSGKTKEFLFSPNDSASDIAKHVYDNWPMDWEEEQVSSPNILRLIYQGRFLHGNVTLGALKLPFGKTTVMHLVARETLPEPNSQGQRNREKTGESNCCVIL
On to B2, for which the “maximal inhibition of Ube2D3 activation” value in assay [12] is recorded as “up to 70%”. Besides, the “inhibition of Ube2D3~Ub formation” value in assay [7] is recorded as “potent inhibition”. In [9], the “inhibition of AtUBC8~Ub thioester formation” value is “potent inhibition”.

Values taken from patent US10829757B2, “MUB motif is an inhibitor of E2-ubiquitin thioester formation” (Saint Louis University, priority 2016, dated 2020).
